Results published in patent US9957297B2, “Template-fixed peptidomimetics as inhibitors of FPR1” (POLYPHOR AG, priority 2011, dated 2018).
Bridges are numbered along the chain shown (N, C = ends). [ ]: non-standard residue; d: D form.

T1: Formyl-Peptide Receptor 1 (UniProt P21462 1-350, limits assumed)
T1 sequence (looked up): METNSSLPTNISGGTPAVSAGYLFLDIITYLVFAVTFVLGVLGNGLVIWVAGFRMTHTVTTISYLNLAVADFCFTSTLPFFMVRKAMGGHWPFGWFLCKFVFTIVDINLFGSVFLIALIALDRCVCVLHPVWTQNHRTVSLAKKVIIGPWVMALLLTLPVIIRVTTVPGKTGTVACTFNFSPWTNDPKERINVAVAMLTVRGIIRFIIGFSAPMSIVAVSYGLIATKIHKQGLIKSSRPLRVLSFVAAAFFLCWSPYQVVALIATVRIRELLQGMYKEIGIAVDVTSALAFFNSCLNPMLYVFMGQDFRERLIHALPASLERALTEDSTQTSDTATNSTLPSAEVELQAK


Each binder was assayed against T1, Formyl-Peptide Receptor 1 (assay: cell-based or functional assay).

Binder | β-Arrestin IC50
cyclo(YHKCWG[dP]WTICYQK[dP]P) (disulfide 4-11; SMILES CC[C@H](C)[C@@H]1NC(=O)[C@H]([C@@H](C)O)NC(=O)[C@H](Cc2c[nH]c3ccccc23)NC(=O)[C@H]2CCCN2C(=O)CNC(=O)[C@H](Cc2c[nH]c3ccccc23)NC(=O)[C@@H]2CSSC[C@H](NC1=O)C(=O)N[C@@H](Cc1ccc(O)cc1)C(=O)N[C@@H](CCC(N)=O)C(=O)N[C@@H](CCCCN)C(=O)N1CCC[C@@H]1C(=O)N1CCC[C@H]1C(=O)N[C@@H](Cc1ccc(O)cc1)C(=O)N[C@@H](Cc1c[nH]cn1)C(=O)N[C@@H](CCCCN)C(=O)N2) [cyclo(-Tyr-His-Lys-Cys-Trp-Gly-^DPro-Trp-Thr-Ile-Cys-Tyr-Gln-Lys-^DPro-Pro-)] | 71 nM
cyclo(YHTCHG[dP]WTICYQK[dP]P) (disulfide 4-11; SMILES CC[C@H](C)[C@@H]1NC(=O)[C@H]([C@@H](C)O)NC(=O)[C@H](Cc2c[nH]c3ccccc23)NC(=O)[C@H]2CCCN2C(=O)CNC(=O)[C@H](Cc2c[nH]cn2)NC(=O)[C@@H]2CSSC[C@H](NC1=O)C(=O)N[C@@H](Cc1ccc(O)cc1)C(=O)N[C@@H](CCC(N)=O)C(=O)N[C@@H](CCCCN)C(=O)N1CCC[C@@H]1C(=O)N1CCC[C@H]1C(=O)N[C@@H](Cc1ccc(O)cc1)C(=O)N[C@@H](Cc1c[nH]cn1)C(=O)N[C@@H]([C@@H](C)O)C(=O)N2) [cyclo(-Tyr-His-Thr-Cys-His-Gly-^DPro-Trp-Thr-Ile-Cys-Tyr-Gln-Lys-^DPro-Pro-)] | 178 nM

Results, then the binder that gave them:

β-Arrestin IC50 | Binder
165 nM | cyclo(EHKCHG[dP]WTICYEK[dP]P) (disulfide 4-11; SMILES CC[C@H](C)[C@@H]1NC(=O)[C@H]([C@@H](C)O)NC(=O)[C@H](Cc2c[nH]c3ccccc23)NC(=O)[C@H]2CCCN2C(=O)CNC(=O)[C@H](Cc2c[nH]cn2)NC(=O)[C@@H]2CSSC[C@H](NC1=O)C(=O)N[C@@H](Cc1ccc(O)cc1)C(=O)N[C@@H](CCC(=O)O)C(=O)N[C@@H](CCCCN)C(=O)N1CCC[C@@H]1C(=O)N1CCC[C@H]1C(=O)N[C@@H](CCC(=O)O)C(=O)N[C@@H](Cc1c[nH]cn1)C(=O)N[C@@H](CCCCN)C(=O)N2) [cyclo(-Glu-His-Lys-Cys-His-Gly-^DPro-Trp-Thr-Ile-Cys-Tyr-Glu-Lys-^DPro-Pro-)]
177 nM | cyclo(YHWCHG[dP]WTICYQK[dP]P) (disulfide 4-11; SMILES CC[C@H](C)[C@@H]1NC(=O)[C@H]([C@@H](C)O)NC(=O)[C@H](Cc2c[nH]c3ccccc23)NC(=O)[C@H]2CCCN2C(=O)CNC(=O)[C@H](Cc2c[nH]cn2)NC(=O)[C@@H]2CSSC[C@H](NC1=O)C(=O)N[C@@H](Cc1ccc(O)cc1)C(=O)N[C@@H](CCC(N)=O)C(=O)N[C@@H](CCCCN)C(=O)N1CCC[C@@H]1C(=O)N1CCC[C@H]1C(=O)N[C@@H](Cc1ccc(O)cc1)C(=O)N[C@@H](Cc1c[nH]cn1)C(=O)N[C@@H](Cc1c[nH]c3ccccc13)C(=O)N2) [cyclo(-Tyr-His-Trp-Cys-His-Gly-^DPro-Trp-Thr-Ile-Cys-Tyr-Gln-Lys-^DPro-Pro-)]
89 nM | cyclo(YHWCWG[dP]WTICYQK[dP]P) (disulfide 4-11; SMILES CC[C@H](C)[C@@H]1NC(=O)[C@H]([C@@H](C)O)NC(=O)[C@H](Cc2c[nH]c3ccccc23)NC(=O)[C@H]2CCCN2C(=O)CNC(=O)[C@H](Cc2c[nH]c3ccccc23)NC(=O)[C@@H]2CSSC[C@H](NC1=O)C(=O)N[C@@H](Cc1ccc(O)cc1)C(=O)N[C@@H](CCC(N)=O)C(=O)N[C@@H](CCCCN)C(=O)N1CCC[C@@H]1C(=O)N1CCC[C@H]1C(=O)N[C@@H](Cc1ccc(O)cc1)C(=O)N[C@@H](Cc1c[nH]cn1)C(=O)N[C@@H](Cc1c[nH]c3ccccc13)C(=O)N2) [cyclo(-Tyr-His-Trp-Cys-Trp-Gly-^DPro-Trp-Thr-Ile-Cys-Tyr-Gln-Lys-^DPro-Pro-)]
